Measured values from publication PMC10725331.

How the values were obtained:
Test in all cases: direct binding assay (cell-free, plate-based luminescence); GFP-TRKB from 120 ug HEK293T lysate captured on anti-GFP coated 96-well plate; biotinylated BDNF 0.1-100 pM added for 1 h at RT in PBS; HRP-streptavidin and ECL; blank wells subtracted
GFP-TRKB.Tyr433Phe (rat) = GFP-TRKB.Tyr433Phe (rat) (UniProt Q63604)
GFP-TRKB.wt (rat) = GFP-TRKB.wt (rat) (UniProt Q63604)
GFP-TRKB/TRKA.TM (rat) = GFP-TRKB/TRKA.TM (rat) (UniProt Q63604)

“biotinylated BDNF (brain-derived neurotrophic factor) (ligand)” was tested, and the Kd (GFP-TRKB.Tyr433Phe (rat)) was 0.438 pM, the Kd (GFP-TRKB.wt (rat)) was 0.39 pM and the Kd (GFP-TRKB/TRKA.TM (rat)) was 0.387 pM.
